Measured values published in US20240091321A1.

Legend:
Insulin Receptor = test: SPR; data not shown
CI-MPR receptor [1] = test: CIMPR binding assay, PPT1 conditioned media, curves starting at 25 nM, bound PPT1 activity; the table prints no units, units of the axes
CI-MPR receptor [2] = test: CIMPR binding assay, PPT1 conditioned media, dilution starting at 50 nM, bound PPT1 activity; the table prints no units, units of the axes

Kd (Insulin Receptor) [nM] | Bmax (CI-MPR receptor [1]) [nmol/mL/h] | Kd (CI-MPR receptor [1]) [nM] | Bmax (CI-MPR receptor [2]) [nmol/mL/h] | Kd (CI-MPR receptor [2]) [nM] | Substance
8 |  |  |  |  | Insulin (from UniProt P01308 25-54; P01308 90-110) (ligand)
 | 54.5 | 2.71 | 54.4 | 2.7 | PPT1 control (enzyme)
